Test results from the Immune Epitope Database (IEDB).
pKd: −log10 of the molar value.

What was measured:
Test in all cases: IEDB peptide-MHC binding, purified MHC/competitive/radioactivity; filed as Kd, often an IC50 or EC50 that approximates it; ≥ and ≤ were set here for values at or beyond the usual limits of such assays
[1] = biological target: HLA-A*03:01
[2] = biological target: HLA-A*11:01
[3] = biological target: HLA-A*31:01
[4] = biological target: HLA-A*33:01
[5] = biological target: HLA-A*68:01
[6] = source organism: Vaccinia virus WR
[7] = source organism: SARS coronavirus Tor2
[8] = source organism: Mammarenavirus guanaritoense
[9] = source organism: Dengue virus 2 Jamaica/1409/1983
[10] = source organism: Lymphocytic choriomeningitis virus (strain Armstrong)
[11] = source organism: Lassa virus Josiah
[12] = source organism: Dengue virus 1 Brazil/97-11/1997

| Sequence | pKd [1, 6] | pKd [2, 6] | pKd [3, 6] | pKd [4, 6] | pKd [5, 6] | further results |
| --- | --- | --- | --- | --- | --- | --- |
| LFIDRGSIK | 5.76 | 4.84 | 5.67 | 5.95 | 5.89 | – |
| QSLCFLLTQK | – | – | – | – | – | pKd [1, 7]: 8.21; pKd [2, 7]: 7.97; pKd [3, 7]: 7.27; pKd [4, 7]: 5.83; pKd [5, 7]: 7.20 |
| TLAVPYNMR | – | – | – | – | – | pKd [1, 7]: 6.00; pKd [2, 7]: 5.49; pKd [3, 7]: 6.82; pKd [4, 7]: 6.90; pKd [5, 7]: 8.03 |
| HAFDAPTLY | 7.47 | 6.73 | ≤ 4.32 | ≤ 4.11 | 7.52 | – |
| KIIAVFDSK | 8.09 | 8.18 | 6.90 | 5.10 | 6.32 | – |
| TMCTEETKR | ≤ 4.11 | ≤ 4.11 | 5.53 | 4.91 | 6.92 | – |
| LLFVVEVVDK | – | – | – | – | – | pKd [1, 7]: 5.36; pKd [2, 7]: 5.52; pKd [3, 7]: 5.18; pKd [4, 7]: 5.22; pKd [5, 7]: 5.88 |
| AISKLGINY | 6.75 | 7.66 | 5.56 | 5.07 | 5.87 | – |
| KSTVKLVQR | 4.78 | 5.85 | 8.35 | 5.83 | 5.82 | – |
| ALEYLSELK | 6.01 | 6.75 | 5.07 | ≤ 4.11 | 5.46 | – |
| NFDYPFFRK | 5.04 | 6.72 | 7.04 | 6.51 | 6.41 | – |
| VCEEFFHQK | – | – | – | – | – | pKd [1, 8]: 4.94; pKd [2, 8]: 6.21; pKd [3, 8]: ≤ 4.65; pKd [4, 8]: ≤ 4.11; pKd [5, 8]: 5.23 |
| HLRVLFSIFY | 7.43 | 5.30 | 6.00 | 5.73 | 5.68 | – |
| YVIRHVDGK | 5.84 | 7.99 | ≤ 4.11 | ≤ 4.11 | 8.76 | – |
| NIADAARHY | 5.17 | 4.95 | 5.30 | 5.11 | 6.33 | – |
| ELNIVDEIIK | 4.93 | 4.72 | ≤ 4.15 | 4.86 | 5.58 | – |

| Sequence | pKd [1, 6] | pKd [2, 6] | pKd [3, 6] | pKd [4, 6] | pKd [5, 6] | further results |
| --- | --- | --- | --- | --- | --- | --- |
| VTISKDNLER | ≤ 4.41 | 7.86 | 6.93 | 6.45 | 7.20 | – |
| EIWTKEGER | – | – | – | – | – | pKd [4, 9]: 7.32 |
| LINRFTMKHK | – | – | – | – | – | pKd [1, 9]: 7.90 |
| SIYSRPKIK | 8.57 | 8.18 | 5.31 | ≤ 4.42 | 6.40 | – |
| SSFIMRNFLR | 5.68 | 8.05 | 8.89 | 6.06 | 7.87 | – |
| LMNVITLVYK | – | – | – | – | – | pKd [1, 7]: 7.97; pKd [2, 7]: 7.63; pKd [3, 7]: 6.13; pKd [4, 7]: 5.25; pKd [5, 7]: 6.13 |
| SCQGSDDIR | – | – | – | – | – | pKd [1, 10]: ≤ 4.11; pKd [2, 10]: ≤ 4.11; pKd [3, 10]: ≤ 4.47; pKd [4, 10]: ≤ 4.29; pKd [5, 10]: ≤ 4.66 |
| GTSTDVVYR | – | – | – | – | – | pKd [1, 7]: 7.10; pKd [2, 7]: 7.75; pKd [3, 7]: 7.52; pKd [4, 7]: 6.32; pKd [5, 7]: 7.78 |
| PIFSDLLKY | ≤ 4.53 | 5.18 | ≤ 4.24 | ≤ 4.11 | ≤ 4.43 | – |
| RMLNILNRRR | – | – | – | – | – | pKd [3, 9]: 8.80 |
| NLEMIDERK | ≤ 4.15 | 5.95 | 5.02 | ≤ 4.11 | 7.31 | – |
| SCPKPHRLNH | – | – | – | – | – | pKd [1, 11]: ≤ 4.67; pKd [2, 11]: ≤ 4.16; pKd [3, 11]: ≤ 4.41; pKd [4, 11]: ≤ 4.46; pKd [5, 11]: ≤ 4.15 |
| KMLLNRFTTR | – | – | – | – | – | pKd ([3]; source organism: Dengue virus 4 Philippines/H241/1956): 8.42 |
| TSAYLISIFL | – | – | – | – | – | pKd ([4]; source organism: Lymphocytic choriomeningitis virus (strain WE)): 5.66 |
| SFNMLKRAR | – | – | – | – | – | pKd [3, 12]: ≤ 4.47; pKd [4, 12]: 8.00 |
